The text below walks through data of patent publication US20090291890A1 (published 2009).

The term Kd denotes the free concentration of one partner at which half of the binding sites on the other are occupied at equilibrium, for simple one-to-one binding.

Test [1] addresses Factor X (Homo sapiens (Human)) (UniProt P00742).
Another test concerns the target T1, Mesyl-dFPR-ACC.
T1 sequence (peptide, N-terminal mesyl; D-Phe at position 1 (dF); C-terminal ACC fluorophore): FPR

The target in test [2] is T2, soluble tissue factor (recombinant human Coagulation Factor III/soluble tissue factor; R&D Systems) (human).
T2 chain: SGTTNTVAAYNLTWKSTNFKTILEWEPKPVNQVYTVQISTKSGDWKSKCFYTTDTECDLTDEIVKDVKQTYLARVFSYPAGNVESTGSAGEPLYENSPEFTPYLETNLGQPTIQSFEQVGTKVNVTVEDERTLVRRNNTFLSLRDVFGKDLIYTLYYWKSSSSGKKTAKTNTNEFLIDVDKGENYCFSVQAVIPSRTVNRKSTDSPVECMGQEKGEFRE
The experiment in a line: SPR (Biacore T100), sTF on chip, two-state fit. For orientation: Surface plasmon resonance follows binding to a sensor surface in real time, without labels.

B1: V158D/E296V/M298Q/H373F-FVIIa (enzyme)
chain: ANAFLEELRPGSLERECKEEQCSFEEAREIFKDAERTKLFWISYSDGDQCASSPCQNGGSCKDQLQSYICFCLPAFEGRNCETHKDDQLICVNENGGCEQYCSDHTGTKRSCRCHEGYSLLADGVSCTPTVEYPCGKIPILEKRNASKPQGRIVGGKDCPKGECPWQVLLLVNGAQLCGGTLINTIWVVSAAHCFDKIKNWRNLIAVLGEHDLSEHDGDEQSRRVAQVIIPSTYVPGTTNHDIALLRLHQPVVLTDHVVPLCLPERTFSERTLAFVRFSLVSGWGQLLDRGATALVLQVLNVPRLMTQDCLQQSRKVGDSPNITEYMFCAGYSDGSKDSCKGDSGGPHATHYRGTWYLTGIVSWGQGCATVGFFGVYTRVSQYIEWLQKLMRSEPRPGVLLRAPFP
Regarding B1, in test [1], the kcat/KM, TF-dependent assay is 1.51e+08 M⁻¹ s⁻¹ and the kcat/KM, TF-independent assay was determined as 1300 M⁻¹ s⁻¹. In the test with Mesyl-dFPR-ACC, this molecule displayed an Activity (µmol/sec/µmol), specific activity for mesyl-dFPR-ACC (µmol/sec/µmol) of 5.6.

B2: FVIIa S222A/Q286R (enzyme)
chain: ANAFLEELRPGSLERECKEEQCSFEEAREIFKDAERTKLFWISYSDGDQCASSPCQNGGSCKDQLQSYICFCLPAFEGRNCETHKDDQLICVNENGGCEQYCSDHTGTKRSCRCHEGYSLLADGVSCTPTVEYPCGKIPILEKRNASKPQGRIVGGKVCPKGECPWQVLLLVNGAQLCGGTLINTIWVVSAAHCFDKIKNWRNLIAVLGEHDLSEHDGDEQARRVAQVIIPSTYVPGTTNHDIALLRLHQPVVLTDHVVPLCLPERTFSERTLAFVRFSLVSGWGRLLDRGATALELMVLNVPRLMTQDCLQQSRKVGDSPNITEYMFCAGYSDGSKDSCKGDSGGPHATHYRGTWYLTGIVSWGQGCATVGHFGVYTRVSQYIEWLQKLMRSEPRPGVLLRAPFP
In the case of B2, in test [2], the “Affinity Kd-WT/Kd-mut” value worked out at 2.3 and the dissociation constant Kd was found to be 3.4 nM.

B3: FVIIa H257S (enzyme)
chain: ANAFLEELRPGSLERECKEEQCSFEEAREIFKDAERTKLFWISYSDGDQCASSPCQNGGSCKDQLQSYICFCLPAFEGRNCETHKDDQLICVNENGGCEQYCSDHTGTKRSCRCHEGYSLLADGVSCTPTVEYPCGKIPILEKRNASKPQGRIVGGKVCPKGECPWQVLLLVNGAQLCGGTLINTIWVVSAAHCFDKIKNWRNLIAVLGEHDLSEHDGDEQSRRVAQVIIPSTYVPGTTNHDIALLRLHQPVVLTDSVVPLCLPERTFSERTLAFVRFSLVSGWGQLLDRGATALELMVLNVPRLMTQDCLQQSRKVGDSPNITEYMFCAGYSDGSKDSCKGDSGGPHATHYRGTWYLTGIVSWGQGCATVGHFGVYTRVSQYIEWLQKLMRSEPRPGVLLRAPFP
Consider B3, for which, in test [2], the “Affinity Kd-WT/Kd-mut” value was determined as 1.2 and the Kd was 6.6 nM.

B4: FVIIa T239V (enzyme)
chain: ANAFLEELRPGSLERECKEEQCSFEEAREIFKDAERTKLFWISYSDGDQCASSPCQNGGSCKDQLQSYICFCLPAFEGRNCETHKDDQLICVNENGGCEQYCSDHTGTKRSCRCHEGYSLLADGVSCTPTVEYPCGKIPILEKRNASKPQGRIVGGKVCPKGECPWQVLLLVNGAQLCGGTLINTIWVVSAAHCFDKIKNWRNLIAVLGEHDLSEHDGDEQSRRVAQVIIPSTYVPGTVNHDIALLRLHQPVVLTDHVVPLCLPERTFSERTLAFVRFSLVSGWGQLLDRGATALELMVLNVPRLMTQDCLQQSRKVGDSPNITEYMFCAGYSDGSKDSCKGDSGGPHATHYRGTWYLTGIVSWGQGCATVGHFGVYTRVSQYIEWLQKLMRSEPRPGVLLRAPFP
As for B4, in test [2], the “Affinity Kd-WT/Kd-mut” value was found to be 1.5 and the dissociation constant Kd turned out to be 5.2 nM.

B5: FVIIa K109N (enzyme)
chain: ANAFLEELRPGSLERECKEEQCSFEEAREIFKDAERTKLFWISYSDGDQCASSPCQNGGSCKDQLQSYICFCLPAFEGRNCETHKDDQLICVNENGGCEQYCSDHTGTNRSCRCHEGYSLLADGVSCTPTVEYPCGKIPILEKRNASKPQGRIVGGKVCPKGECPWQVLLLVNGAQLCGGTLINTIWVVSAAHCFDKIKNWRNLIAVLGEHDLSEHDGDEQSRRVAQVIIPSTYVPGTTNHDIALLRLHQPVVLTDHVVPLCLPERTFSERTLAFVRFSLVSGWGQLLDRGATALELMVLNVPRLMTQDCLQQSRKVGDSPNITEYMFCAGYSDGSKDSCKGDSGGPHATHYRGTWYLTGIVSWGQGCATVGHFGVYTRVSQYIEWLQKLMRSEPRPGVLLRAPFP
On to B5, for which the Kd in test [2] came out at 10.8 nM.

B6: H257A/Q286R/M298Q-FVIIa (enzyme)
chain: ANAFLEELRPGSLERECKEEQCSFEEAREIFKDAERTKLFWISYSDGDQCASSPCQNGGSCKDQLQSYICFCLPAFEGRNCETHKDDQLICVNENGGCEQYCSDHTGTKRSCRCHEGYSLLADGVSCTPTVEYPCGKIPILEKRNASKPQGRIVGGKVCPKGECPWQVLLLVNGAQLCGGTLINTIWVVSAAHCFDKIKNWRNLIAVLGEHDLSEHDGDEQSRRVAQVIIPSTYVPGTTNHDIALLRLHQPVVLTDAVVPLCLPERTFSERTLAFVRFSLVSGWGRLLDRGATALELQVLNVPRLMTQDCLQQSRKVGDSPNITEYMFCAGYSDGSKDSCKGDSGGPHATHYRGTWYLTGIVSWGQGCATVGHFGVYTRVSQYIEWLQKLMRSEPRPGVLLRAPFP
Take B6: in test [1], the kcat/KM, TF-dependent assay came out at 1.13e+08 M⁻¹ s⁻¹ and the kcat/KM, TF-independent assay worked out at 61.5 M⁻¹ s⁻¹. The molecule also displayed an Activity (µmol/sec/µmol), specific activity for mesyl-dFPR-ACC (µmol/sec/µmol) in the test with Mesyl-dFPR-ACC of 2.18.

B7: FVIIa A175S (enzyme)
chain: ANAFLEELRPGSLERECKEEQCSFEEAREIFKDAERTKLFWISYSDGDQCASSPCQNGGSCKDQLQSYICFCLPAFEGRNCETHKDDQLICVNENGGCEQYCSDHTGTKRSCRCHEGYSLLADGVSCTPTVEYPCGKIPILEKRNASKPQGRIVGGKVCPKGECPWQVLLLVNGSQLCGGTLINTIWVVSAAHCFDKIKNWRNLIAVLGEHDLSEHDGDEQSRRVAQVIIPSTYVPGTTNHDIALLRLHQPVVLTDHVVPLCLPERTFSERTLAFVRFSLVSGWGQLLDRGATALELMVLNVPRLMTQDCLQQSRKVGDSPNITEYMFCAGYSDGSKDSCKGDSGGPHATHYRGTWYLTGIVSWGQGCATVGHFGVYTRVSQYIEWLQKLMRSEPRPGVLLRAPFP
For B7, in test [2], the “Affinity Kd-WT/Kd-mut” value was found to be 0.6 and the dissociation constant (Kd) came out at 12.3 nM.

B8: FVIIa S222A/H257A/Q286R (enzyme)
chain: ANAFLEELRPGSLERECKEEQCSFEEAREIFKDAERTKLFWISYSDGDQCASSPCQNGGSCKDQLQSYICFCLPAFEGRNCETHKDDQLICVNENGGCEQYCSDHTGTKRSCRCHEGYSLLADGVSCTPTVEYPCGKIPILEKRNASKPQGRIVGGKVCPKGECPWQVLLLVNGAQLCGGTLINTIWVVSAAHCFDKIKNWRNLIAVLGEHDLSEHDGDEQARRVAQVIIPSTYVPGTTNHDIALLRLHQPVVLTDAVVPLCLPERTFSERTLAFVRFSLVSGWGRLLDRGATALELMVLNVPRLMTQDCLQQSRKVGDSPNITEYMFCAGYSDGSKDSCKGDSGGPHATHYRGTWYLTGIVSWGQGCATVGHFGVYTRVSQYIEWLQKLMRSEPRPGVLLRAPFP
As for B8, in test [2], the “Affinity Kd-WT/Kd-mut” value came out at 1.3 and the dissociation constant (Kd) came out at 6 nM.

B9: FVIIa T239I (enzyme)
chain: ANAFLEELRPGSLERECKEEQCSFEEAREIFKDAERTKLFWISYSDGDQCASSPCQNGGSCKDQLQSYICFCLPAFEGRNCETHKDDQLICVNENGGCEQYCSDHTGTKRSCRCHEGYSLLADGVSCTPTVEYPCGKIPILEKRNASKPQGRIVGGKVCPKGECPWQVLLLVNGAQLCGGTLINTIWVVSAAHCFDKIKNWRNLIAVLGEHDLSEHDGDEQSRRVAQVIIPSTYVPGTINHDIALLRLHQPVVLTDHVVPLCLPERTFSERTLAFVRFSLVSGWGQLLDRGATALELMVLNVPRLMTQDCLQQSRKVGDSPNITEYMFCAGYSDGSKDSCKGDSGGPHATHYRGTWYLTGIVSWGQGCATVGHFGVYTRVSQYIEWLQKLMRSEPRPGVLLRAPFP
B9: in test [2], the “Affinity Kd-WT/Kd-mut” value amounted to 1.2 and the Kd stood at 6.2 nM.

B10: Gla swap FIX/S222A/Q286R/M298Q-FVIIa (enzyme)
chain: YNSGKLEEFVQGNLERECMEEKCSFEEAREVFENTERTTEFWKQYSDGDQCASSPCQNGGSCKDQLQSYICFCLPAFEGRNCETHKDDQLICVNENGGCEQYCSDHTGTKRSCRCHEGYSLLADGVSCTPTVEYPCGKIPILEKRNASKPQGRIVGGKVCPKGECPWQVLLLVNGAQLCGGTLINTIWVVSAAHCFDKIKNWRNLIAVLGEHDLSEHDGDEQARRVAQVIIPSTYVPGTTNHDIALLRLHQPVVLTDHVVPLCLPERTFSERTLAFVRFSLVSGWGRLLDRGATALELQVLNVPRLMTQDCLQQSRKVGDSPNITEYMFCAGYSDGSKDSCKGDSGGPHATHYRGTWYLTGIVSWGQGCATVGHFGVYTRVSQYIEWLQKLMRSEPRPGVLLRAPFP
Turning to B10, in test [1], the kcat/KM (M^-1s^-1), TF-dependent assay was 2.1e+08 M⁻¹ s⁻¹ and the kcat/KM, TF-independent assay turned out to be 415 M⁻¹ s⁻¹. For the same molecule, the Activity (µmol/sec/µmol), specific activity for mesyl-dFPR-ACC (µmol/sec/µmol) in the test with Mesyl-dFPR-ACC is 1.12.

B11: FVIIa Gla swap FIX (enzyme)
chain: YNSGKLEEFVQGNLERECMEEKCSFEEAREVFENTERTTEFWKQYSDGDQCASSPCQNGGSCKDQLQSYICFCLPAFEGRNCETHKDDQLICVNENGGCEQYCSDHTGTKRSCRCHEGYSLLADGVSCTPTVEYPCGKIPILEKRNASKPQGRIVGGKVCPKGECPWQVLLLVNGAQLCGGTLINTIWVVSAAHCFDKIKNWRNLIAVLGEHDLSEHDGDEQSRRVAQVIIPSTYVPGTTNHDIALLRLHQPVVLTDHVVPLCLPERTFSERTLAFVRFSLVSGWGQLLDRGATALELMVLNVPRLMTQDCLQQSRKVGDSPNITEYMFCAGYSDGSKDSCKGDSGGPHATHYRGTWYLTGIVSWGQGCATVGHFGVYTRVSQYIEWLQKLMRSEPRPGVLLRAPFP
For B11, the dissociation constant Kd in test [2] is 36 nM.

B12: Gla swap FIX/T128N/P129A/A175S/S222A/Q286R-FVIIa (enzyme)
chain: YNSGKLEEFVQGNLERECMEEKCSFEEAREVFENTERTTEFWKQYSDGDQCASSPCQNGGSCKDQLQSYICFCLPAFEGRNCETHKDDQLICVNENGGCEQYCSDHTGTKRSCRCHEGYSLLADGVSCNATVEYPCGKIPILEKRNASKPQGRIVGGKVCPKGECPWQVLLLVNGSQLCGGTLINTIWVVSAAHCFDKIKNWRNLIAVLGEHDLSEHDGDEQARRVAQVIIPSTYVPGTTNHDIALLRLHQPVVLTDHVVPLCLPERTFSERTLAFVRFSLVSGWGRLLDRGATALELMVLNVPRLMTQDCLQQSRKVGDSPNITEYMFCAGYSDGSKDSCKGDSGGPHATHYRGTWYLTGIVSWGQGCATVGHFGVYTRVSQYIEWLQKLMRSEPRPGVLLRAPFP
For the molecule B12, in test [1], the kcat/KM, TF-dependent assay turned out to be 3.88e+07 M⁻¹ s⁻¹ and the kcat/KM, TF-independent assay stood at 30.5 M⁻¹ s⁻¹. The same molecule showed an Activity (µmol/sec/µmol), specific activity for mesyl-dFPR-ACC (µmol/sec/µmol) in the test with Mesyl-dFPR-ACC of 0.75.
